Measurements from the supplement of paper PMC10567573.

B1: TRIM29 (parent)
chain: RKCPVHGKTMELFCQTDQTCICYL
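Note: lentivirally expressed fusions sorted by FACS into six bins by GFP to DsRed ratio, PSI derived from sequencing read proportions per bin multiplied by bin number.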

Variants of: B1
Experiment: protein stability index of a GFP-peptide fusion (GPS, HEK-293T) (PSI 1-6); higher = more stable
Details: c terminus: a fixed tail appended
With RKCPVHGKTMELFCQTDQTCCCYL [I21C] the protein stability index was 3.49. For RKCPVHGKTMELFCQTDQTCQCYL [I21Q], the protein stability index was 3.36. For RKCPVHGKTMELFCQTDQTCACYL [I21A], the protein stability index was 2.77. In the case of RKCPVHGKTMELFCQTDQTCDCYL [I21D], the protein stability index is reported as 4.33. With RKCPVHGKTMELFCQTDQTCECYL [I21E] the protein stability index was 4.47. Variant RKCPVHGKTMELFCQTDQTCLCYL [I21L] has a protein stability index of 1.73. In the case of RKCPVHGKTMELFCQTDQTCTCYL [I21T], the protein stability index is reported as 3. RKCPVHGKTMELFCQTDQTCVCYL [I21V] gave a protein stability index of 1.92. RKCPVHGKTMELFCQTDQTCPCYL [I21P] gave a protein stability index of 2.44. With RKCPVHGKTMELFCQTDQTCRCYL [I21R] the protein stability index was 1.88. Variant RKCPVHGKTMELFCQTDQTCFCYL [I21F] has a protein stability index of 2.86. With RKCPVHGKTMELFCQTDQTCGCYL [I21G] the protein stability index was 3.1. With RKCPVHGKTMELFCQTDQTCWCYL [I21W] the protein stability index was 2.78. For RKCPVHGKTMELFCQTDQTCSCYL [I21S], the protein stability index was 1.91. For RKCPVHGKTMELFCQTDQTCIAYL [C22A], the protein stability index was 1.87. RKCPVHGKTMELFCQTDQTCIDYL [C22D] gave a protein stability index of 2.38. Variant RKCPVHGKTMELFCQTDQTCITYL [C22T] has a protein stability index of 2.16. RKCPVHGKTMELFCQTDQTCIIYL [C22I] gave a protein stability index of 2.81. For RKCPVHGKTMELFCQTDQTCIKYL [C22K], the protein stability index was 2.04. Work on RKCPVHGKTMELFCQTDQTCIPYL [C22P] yielded a protein stability index of 2.27. For RKCPVHGKTMELFCQTDQTCIVYL [C22V], the protein stability index was 2.9. For RKCPVHGKTMELFCQTDQTCIEYL [C22E], the protein stability index was 2.58. RKCPVHGKTMELFCQTDQTCISYL [C22S] showed a protein stability index of 2.46. With RKCPVHGKTMELFCQTDQTCIYYL [C22Y] the protein stability index was 1.45. In the case of RKCPVHGKTMELFCQTDQTCIWYL [C22W], the protein stability index is reported as 1.23. For RKCPVHGKTMELFCQTDQTCIHYL [C22H], the protein stability index was 2.01. For RKCPVHGKTMELFCQTDQTCINYL [C22N], the protein stability index was 1.67. For RKCPVHGKTMELFCQTDQTCIQYL [C22Q], the protein stability index was 2.02. For RKCPVHGKTMELFCQTDQTCILYL [C22L], the protein stability index was 3.09. RKCPVHGKTMELFCQTDQTCIGYL [C22G] showed a protein stability index of 1.99. Work on RKCPVHGKTMELFCQTDQTCIMYL [C22M] yielded a protein stability index of 2.37. Work on RKCPVHGKTMELFCQTDQTCIFYL [C22F] yielded a protein stability index of 1.31. With RKCPVHGKTMELFCQTDQTCIRYL [C22R] the protein stability index was 1.99. RKCPVHGKTMELFCQTDVTCICYL [Q18V] showed a protein stability index of 2.65. RKCPVHGKTMELFCQTDNTCICYL [Q18N] showed a protein stability index of 1.82. RKCPVHGKTMELFCQTDWTCICYL [Q18W] gave a protein stability index of 1.56. RKCPVHGKTMELFCQTDYTCICYL [Q18Y] showed a protein stability index of 1.42. RKCPVHGKTMELFCQTDPTCICYL [Q18P] gave a protein stability index of 2.7. For RKCPVHGKTMELFCQTDTTCICYL [Q18T], the protein stability index was 2.36. RKCPVHGKTMELFCQTDSTCICYL [Q18S] gave a protein stability index of 1.68. In the case of RKCPVHGKTMELFCQTDRTCICYL [Q18R], the protein stability index is reported as 1.97. Variant RKCPVHGKTMELFCQTDQTGICYL [C20G] has a protein stability index of 3.31. With RKCPVHGKTMELFCQTDQTAICYL [C20A] the protein stability index was 3.08. Work on RKCPVHGKTMELFCQTDQTHICYL [C20H] yielded a protein stability index of 3.04. Variant RKCPVHGKTMELFCQTDQTSICYL [C20S] has a protein stability index of 2.56. RKCPVHGKTMELFCQTDQTDICYL [C20D] gave a protein stability index of 3.16. For RKCPVHGKTMELFCQTDQTKICYL [C20K], the protein stability index was 3.17. Work on RKCPVHGKTMELFCQTDQTQICYL [C20Q] yielded a protein stability index of 3.07. RKCPVHGKTMELFCQTDQTLICYL [C20L] showed a protein stability index of 2.28. RKCPVHGKTMELFCQTDQTIICYL [C20I] gave a protein stability index of 1.25. Work on RKCPVHGKTMELFCQTDQTVICYL [C20V] yielded a protein stability index of 1.27. For RKCPVHGKTMELFCQTDQTWICYL [C20W], the protein stability index was 2.42. Variant RKCPVHGKTMELFCQTDQTRICYL [C20R] has a protein stability index of 2.38. With RKCPVHGKTMELFCQTDQTPICYL [C20P] the protein stability index was 1.83. For RKCPVHGKTMELFCQTDQTYICYL [C20Y], the protein stability index was 2.78. RKCPVHGKTMELFCQTDQTNICYL [C20N] showed a protein stability index of 3.24. RKCPVHGKTMELFCQTDQTMICYL [C20M] gave a protein stability index of 3.2. Work on RKCPVHGKTMELFCQTDQCCICYL [T19C] yielded a protein stability index of 2.66. Variant RKCPVHGKTMELFCQTDQNCICYL [T19N] has a protein stability index of 2.16. With RKCPVHGKTMELFCQTDQGCICYL [T19G] the protein stability index was 2.42. In the case of RKCPVHGKTMELFCQTDQKCICYL [T19K], the protein stability index is reported as 2.44. For RKCPVHGKTMELFCQTDQECICYL [T19E], the protein stability index was 2.4. For RKCPVHGKTMELFCQTDQMCICYL [T19M], the protein stability index was 2.51. RKCPVHGKTMELFCQTDQLCICYL [T19L] showed a protein stability index of 1.59. In the case of RKCPVHGKTMELFCQTDQHCICYL [T19H], the protein stability index is reported as 2.95. RKCPVHGKTMELFCQTDQICICYL [T19I] showed a protein stability index of 3.16. Work on RKCPVHGKTMELFCQTDQACICYL [T19A] yielded a protein stability index of 3.62. Work on RKCPVHGKTMELFCQTDQVCICYL [T19V] yielded a protein stability index of 1.31. For RKCPVHGKTMELFCQTDQFCICYL [T19F], the protein stability index was 1.88. For RKCPVHGKTMELFCQTDQYCICYL [T19Y], the protein stability index was 1.89. RKCPVHGKTMELFCQTDQQCICYL [T19Q] gave a protein stability index of 2.32. Variant RKCPVHGKTMELFCQTDQSCICYL [T19S] has a protein stability index of 2.63. For RKCPVHGKTMELFCQTDQPCICYL [T19P], the protein stability index was 2.35. For RKCPVHGKTMELFCQTDQWCICYL [T19W], the protein stability index was 2.47. Work on RKCPVHGKTMELFCQTDQDCICYL [T19D] yielded a protein stability index of 1.6. RKCPVHGKTMELFCQTDQTCICTL [Y23T] gave a protein stability index of 4.17. RKCPVHGKTMELFCQTDQTCICHL [Y23H] gave a protein stability index of 4.24. In the case of RKCPVHGKTMELFCQTDQTCICWL [Y23W], the protein stability index is reported as 1.59. In the case of RKCPVHGKTMELFCQTDQTCICAL [Y23A], the protein stability index is reported as 4.28. Variant RKCPVHGKTMELFCQTDQTCICML [Y23M] has a protein stability index of 3.38. Work on RKCPVHGKTMELFCQTDQTCICCL [Y23C] yielded a protein stability index of 4.73. For RKCPVHGKTMELFCQTDQTCICVL [Y23V], the protein stability index was 2.66. RKCPVHGKTMELFCQTDQTCICEL [Y23E] showed a protein stability index of 5.25. In the case of RKCPVHGKTMELFCQTDQTCICKL [Y23K], the protein stability index is reported as 4.52. RKCPVHGKTMELFCQTDQTCICSL [Y23S] gave a protein stability index of 4.29. With RKCPVHGKTMELFCQTDQTCICFL [Y23F] the protein stability index was 1.65. Work on RKCPVHGKTMELFCQTDQTCICGL [Y23G] yielded a protein stability index of 4.98. RKCPVHGKTMELFCQTDQTCICRL [Y23R] showed a protein stability index of 3.95. Variant RKCPVHGKTMELFCQTDQTCICQL [Y23Q] has a protein stability index of 4.28. RKCPVHGKTMELFCQTDQTCICLL [Y23L] showed a protein stability index of 2.58. Work on RKCPVHGKTMELFCQTDQTCICIL [Y23I] yielded a protein stability index of 2.73. With RKCPVHGKTMELFCQTDQTCICPL [Y23P] the protein stability index was 5.16. RKCPVHGKTMELFCQTDQTCICNL [Y23N] showed a protein stability index of 4.91. For RKCPVHGKTMELFCQTDQTCICDL [Y23D], the protein stability index was 5.55.
